Measured values taken from the supplement of paper PMC9170038.

What was measured:
[1] = test system: K4 kissing-loop RNA reporter; test: apparent KD of K4 kissing-loop reporter; higher = weaker reporter binding; conditions: Eterna round: R107;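 note: bound reporter read as fluorescence of individual clusters on recovered sequencing chips by microscopy, with normalized cluster intensities fitted with a binding model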
Description: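 RNA-MaP round R107: designed RNA switches with theophylline, tryptophan, arginine or FMN aptamers are transcribed on-chip within common flanks. They are titrated with a labelled K4 kissing-loop RNA reporter in RNA-MaP buffer (100 mM Tris pH 7.5, 80 mM KCl, 4 mM MgCl2), without ligand or with the indicated ligand. Median apparent KD per design.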

MS2 coat protein = test: apparent KD of MS2 coat protein; designed switch direction (-1 OFF switch, 1 ON switch): -1; higher = weaker reporter binding
Summary of the method: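 Each step of the titration lasted 0.8–1.5 h at the lowest concentration and 10–20 min at the highest. The protein, SNAP-549-labelled MS2 coat protein, went from 0.7 or 1.5 nM doubling to 3 µM over RNA switches transcribed on Illumina chips by stalled E. coli RNA polymerase. Normalised cluster fluorescence was curve-fitted, and the per-design median over clusters is given as apparent KD.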

[2] = input ligand: theophylline 20 uM
[3] = input ligand: tryptophan 2.4 mM
[4] = input ligand: microRNA oligo, concentration not stated

Row | Sequence | apparent KD of K4 kissing-loop reporter ([1]; input ligand: FMN 200 uM) [nM] | apparent KD of K4 kissing-loop reporter ([1]; input ligand: arginine 13.2 mM) [nM] | apparent KD of K4 kissing-loop reporter ([1]; input ligand: none) [nM] | apparent KD of K4 kissing-loop reporter [1, 2] [nM] | apparent KD of K4 kissing-loop reporter [1, 3] [nM] | apparent KD of MS2 coat protein (MS2 coat protein; input ligand: FMN 200 uM) [nM] | apparent KD of MS2 coat protein (MS2 coat protein; input ligand: none) [nM] | apparent KD of MS2 coat protein (MS2 coat protein; Eterna round: R95, input ligand: FMN 200 uM) [nM] | apparent KD of MS2 coat protein (MS2 coat protein; Eterna round: R95, input ligand: microRNA oligo, concentration not stated) [nM] | apparent KD of MS2 coat protein (MS2 coat protein; Eterna round: R95, input ligand: none) [nM] | apparent KD of MS2 coat protein (MS2 coat protein; [4]) [nM]
1 | GGGAGUAGUGCGGCCGCCACUGAGAAAGAAGAAGAAUAUAGUGAUGUUAUAUAGGAAGGGAAGAAUAGGACCGGGCAUUAGAUUU [SSTRyptB.Z] | 336 | 250 | 340 | 275 | 233 | – | – | – | – | – | –
2 | GCGUAUGAUGCUCAAAGAGUAUCUCCCGAUACCAGUAUGGAAACAUACCCUUGGCAGCGGGUAACUGCCCAGUGAUGUUGGACGC [Theophylline A K4 9] | 430 | 253 | 351 | 394 | 326 | – | – | – | – | – | –
3 | AACUCUCAGACACUUGAGUGAUGUUCAGACCGAGGACCGGUACGGCCGCCACUCGGGUCUGAGAGAGGUUAUCAAAGAUAGCCAA [Omei KL Tryp A SS A v7] | 280 | 222 | 336 | 292 | 905 | – | – | – | – | – | –
4 | GUACGCUCCCGAGUGAUGUUCGGUAAUCGCGAGGAUAUCGCUUUUGCGAGAAGGCGCGGAAUGAGGAAACUCGUUCUGAGUGUAC [FMN A 25] | 234 | 191 | 253 | 212 | 233 | – | – | – | – | – | –
5 | UGUAUGGACUGAAGGAGCGCUAGGAAAGUGAGUGAUGUUCAUAUAAAAGUAUAAAGGGUUUGGCAGGUAGGUCGCAGUCCAUACU [KL-SSArg B5] | 225 | 344 | 234 | 270 | 135 | – | – | – | – | – | –
6 | AGAUCUGUAACAGAUACCAGAGGACGAUGAUCGGAUAGUGAUGUUAUCUGUCAGUCGUCGCUCCCUUGGCAGCUGUUACAGAUCA [Omei KL Theo B SS B v1] | 176 | 147 | 174 | 135 | 157 | – | – | – | – | – | –
7 | GCGCGUCAUGUCAGCGGUGACACUGUCGAUACCAGCGCCGCAAGGCGCCCUUGGCAGCGACGCGCUGGAGUGAUGUUCCAGCGUG [#2 Exclusion - Theophylline A Attempt #14 (HarryS)] | 154 | 148 | 164 | 143 | 169 | – | – | – | – | – | –
8 | CGCGCGCGCGCGCGCGCGCGCGAAAAUGAUACCAGUAUAUAAGAAUACCCUUGGCAGCAUAAGAAAGAUAUAGUGAUGUUGUAUA [SSTheophA.A] | 212 | 76.5 | 279 | 316 | 161 | – | – | – | – | – | –
9 | CACCUAGGUACGGCCGCCACUAGAAGUGAUGUUUCGUCUGGUUCCGCAUUACGUGUACUUUCUUAUAGGACCGGGUAGCAAAUAG [theeternabot_exclusion_KL_Trp_B_3] | 548 | 288 | 563 | 258 | 311 | – | – | – | – | – | –
10 | AACAUUUUCAGAAGGAGCGUGAAUUAUUCAUAAUUAUAUUAUACGAGUGAUGUUCGUAUUUCACAGGUAGGUCGCUGAUAUAUUA [JR_SSArginiB_Sub001] | 113 | 133 | 114 | 133 | 107 | – | – | – | – | – | –
11 | UUACGAGUGAUGUUCGAAUAAAUCCAUUCAGAGGAUAUAGUAUUAACUAGAAGGCUGAAACCAACUUCGAGUGAUGUUCGAGGAU [Same State FMN A GF 3] | 94.5 | 87.7 | 108 | 88.4 | 90.8 | – | – | – | – | – | –
12 | UGACUGGACUGAAGGAGCGCUUAACUCCUAGUGAUGUUAGGACAACGAGACAAAGUCUCGAAGCAGGUAGGUCGCAGUCUAGUCU | 217 | 155 | 204 | 198 | 199 | – | – | – | – | – | –
13 | AGGUCACCACUACAGUGAUGUUGUGGAGAGCAGGAUAUGCAGAAAUGCAGAAGGGCUCGCUCUCGGUGACCGAAUGAAACAUUCA [Omei KL FMN A SS A v7] | 404 | 670 | 766 | 476 | 704 | – | – | – | – | – | –
14 | UUAUCAUCAGCGGCCGCCACUGCAAAUUGGAGUGAUGUUCCAAGCGUGGAUAUUGAAAUUACUAGUAGGACCGGGUUGAUGAAUU [AK 2 Ex Trypt B] | 158 | 132 | 158 | 105 | 159 | – | – | – | – | – | –
15 | CCAUCGCUAUUCGAUACCAGUCAAAAUAAAAUAAUAAAUCUGCAAAGGAGUGAUGUUCCAGACCCUUGGCAGCGAAUAGUGAUGG [Theophylline B K4 2] | 746 | 552 | 834 | 709 | 723 | – | – | – | – | – | –
16 | CCAAACAGUUACGAUACCAGUCUAAUAUAUUUGAUCAAAACCCUCGCCGAGUGAUGUUCGGACCCUUGGCAGCGUCUGGGACAGG [zzbtmullin] | 479 | 378 | 500 | 414 | 371 | – | – | – | – | – | –
17 | GCACGUACCCGAAGGAGCGUGCAAGAAUCGUAGUGAUGUUACGGAGAGUGUCACGCCGUCGCACAGGUAGGUCGCGGGUACGUGC | 78.3 | 80.3 | 67.5 | 63.2 | 61.4 | – | – | – | – | – | –
18 | UUUGCAAGCUAAAGAUCCCACAUGAGGAUCACCCAUGUUGCUGCCGUGAGGUAGCUUUUAACUUUUGCUCGUCUUAU [JL TOV1 3.44] (Eterna round: R97, puzzle: Sensor, turn-off variant 1) | – | – | – | – | – | 183 | 217 | – | – | – | –
19 | AGUAGGUCUACCUUGGUGGAUCUGCAUUUAAGCAGGUGUACAUGAGGAUCACCCAUGUCCUCAUUUGCUCGUCUUAU [JL turnoff v2 99.30] (puzzle: Sensor v3, turn-off variant 2) | – | – | – | – | – | – | – | 453 | 342 | 492 | –
20 | AUGAACAAUGUAGGAUAUGCGUGGCGAAGCUAUGCAGAAGGACAUGAGGAUCACCCAUGUUCAAGCGUCUGCGUACAGAUGCUA [JL eng1 1.35 mod 7] (Eterna round: R96, puzzle: Exclusion NG 1) | – | – | – | – | – | 26.9 | 13.8 | – | – | – | 10.3
21 | UUGUUAUAUGUAGGAUAUGCAUAUUAUUAUUAUGCAGAAGGACAUGAGGAUCACCCAUGUAUAUUAUUGUUAUAUGUUAUAUAU [Title] (Eterna round: R96, puzzle: Exclusion NG 1) | – | – | – | – | – | – | – | – | – | – | 16.6
